The text below walks through data of patent US10087231B2, “Substitution mutant receptors and their use in an ecdysone receptor-based inducible gene expression system” (Intrexon Corporation, priority 2001, dated 2018).

This assay deals with GAL4/CfEcR-DEF and pFRLuc in NIH3T3 cells. It is filed as cell-based, mouse. Conditions: 0.04-25 μM GS™-E, compared to wild-type HsRXRβ-EF. The protocol:
The resulting PCR nucleic acid products encoding the mutant RXR ligand binding domains were then each fused to a VP16 transactivation domain as described in Examples 1.3 and 1.6 above. The VP16/mutant RXR receptor constructs were tested for activity by transfecting them into NIH3T3 cells along with GAL4/CfEcR-DEF and pFRLuc in the presence of non-steroid ligand.
DNAs corresponding to the various switch constructs outlined in Example 1.1-1.6 were transfected into mouse NIH3T3 cells (ATCC) as follows. Standard methods for culture and maintenance of the cells were followed. […] Superfect™ (Qiagen Inc.) was used as the transfection reagent. For 12-well plates, 4 μl of Superfect™ was mixed with 100 μl of growth medium. One μg of reporter construct and 0.25 μg of each receptor construct of the receptor pair to be analyzed were added to the transfection mix. […] The cells were harvested and reporter activity was assayed.
Cells were harvested 40 hours after adding ligand. […] Twenty μl of lysate were assayed. […]
The cells were harvested and reporter activity was assayed as described above.
As discussed above, a CfEcR-based gene regulation system is ligand dependent when RXRs are used as the heterodimeric partner and ligand independent when USPs are used as the heterodimeric partner. However, reporter gene expression is induced at very high levels when CfUSP is used as the heterodimeric partner. To improve RXR as heterodimeric partner, Applicants have aligned the polypeptide sequences of several USP and RXR ligand binding domains (domains EF) and identified amino acid residues that are different between these two nuclear receptor family members. In particular, Applicants identified residues that are conserved in all USPs but are different in RXRs and mutated these residues in HsRXRβ. […] The cells were harvested and reporter activity was assayed as described above.

B1: D450E/A451V/K452R: HsRXRβ ligand binding domain triple substitution mutant (protein)
chain: MGPKKKRKVAPPTDVSLGDELHLDGEDVAMAHADALDDFDLDMLGDGDSPGPGFTPHDSAPYGALDMADFEFEQMFTDALGIDEYGGEFPAPEEMPVDRILEAELAVEQKSDQGVEGPGGTGGSGSSPNDPVTNICQAADKQLFTLVEWAKRIPHFSSLPLDDQVILLRAGWNELLIASFSHRSIDVRDGILLATGLHVHRNSAHSAGVGAIFDRVLTELVSKMRDMRMDKTELGCLRAIILFNPEVRGLSNPSEVEVLREKVYASLETYCKQKYPEQQGRFAKLLLRLPALRSIGLKCLEHLFFFKLIGDTPIDTFLMEMLEAPHQLA
Regarding B1, the non-steroid ligand sensitivity result is on record as “improved non-steroid ligand sensitivity”.

B2: E481D/Q482E/Q483P: HsRXRβ ligand binding domain triple substitution mutant (protein)
chain: MGPKKKRKVAPPTDVSLGDELHLDGEDVAMAHADALDDFDLDMLGDGDSPGPGFTPHDSAPYGALDMADFEFEQMFTDALGIDEYGGEFPAPEEMPVDRILEAELAVEQKSDQGVEGPGGTGGSGSSPNDPVTNICQAADKQLFTLVEWAKRIPHFSSLPLDDQVILLRAGWNELLIASFSHRSIDVRDGILLATGLHVHRNSAHSAGVGAIFDRVLTELVSKMRDMRMDKTELGCLRAIILFNPDAKGLSNPSEVEVLREKVYASLETYCKQKYPDEPGRFAKLLLRLPALRSIGLKCLEHLFFFKLIGDTPIDTFLMEMLEAPHQLA
With B2, the non-steroid ligand sensitivity result is “improved non-steroid ligand sensitivity”.

B3: S455K/N456S/P457A/S458Q: HsRXRβ ligand binding domain quadruple substitution mutant (protein)
chain: MGPKKKRKVAPPTDVSLGDELHLDGEDVAMAHADALDDFDLDMLGDGDSPGPGFTPHDSAPYGALDMADFEFEQMFTDALGIDEYGGEFPAPEEMPVDRILEAELAVEQKSDQGVEGPGGTGGSGSSPNDPVTNICQAADKQLFTLVEWAKRIPHFSSLPLDDQVILLRAGWNELLIASFSHRSIDVRDGILLATGLHVHRNSAHSAGVGAIFDRVLTELVSKMRDMRMDKTELGCLRAIILFNPDAKGLKSAQEVEVLREKVYASLETYCKQKYPEQQGRFAKLLLRLPALRSIGLKCLEHLFFFKLIGDTPIDTFLMEMLEAPHQLA
For the molecule B3, the non-steroid ligand sensitivity result is “improved non-steroid ligand sensitivity”.

B4: C475T/K476R/Q477T/K478T/Y479H: HsRXRβ ligand binding domain quintuple substitution mutant (protein)
chain: MGPKKKRKVAPPTDVSLGDELHLDGEDVAMAHADALDDFDLDMLGDGDSPGPGFTPHDSAPYGALDMADFEFEQMFTDALGIDEYGGEFPAPEEMPVDRILEAELAVEQKSDQGVEGPGGTGGSGSSPNDPVTNICQAADKQLFTLVEWAKRIPHFSSLPLDDQVILLRAGWNELLIASFSHRSIDVRDGILLATGLHVHRNSAHSAGVGAIFDRVLTELVSKMRDMRMDKTELGCLRAIILFNPDAKGLSNPSEVEVLREKVYASLETYTRTTHPEQQGRFAKLLLRLPALRSIGLKCLEHLFFFKLIGDTPIDTFLMEMLEAPHQLA
As to B4, the non-steroid ligand sensitivity result is “improved non-steroid ligand sensitivity”.

B5: V462L: HsRXRβ ligand binding domain substitution mutant (protein, listed as Homo sapiens)
chain: MSWAARPPFLPQRHAAGQCGPVGVRKEMHCGVASRWRRRRPWLDPAAAAAAAVAGGEQQTPEPEPGEAGRDGMGDSGRDSRSPDSSSPNPLPQGVPPPSPPGPPLPPSTAPSLGGSGAPPPPPMPPPPLGSPFPVISSSMGSPGLPPPAPPGFSGPVSSPQINSTVSLPGGGSGPPEDVKPPVLGVRGLHCPPPPGGPGAGKRLCAICGDRSSGKHYGVYSCEGCKGFFKRTIRKDLTYSCRDNKDCTVDKRQRNRCQYCRYQKCLATGMKREAVQEERQRGKDKDGDGEGAGGAPEEMPVDRILEAELAVEQKSDQGVEGPGGTGGSGSSPNDPVTNICQAADKQLFTLVEWAKRIPHFSSLPLDDQVILLRAGWNELLIASFSHRSIDVRDGILLATGLHVHRNSAHSAGVGAIFDRVLTELVSKMRDMRMDKTELGCLRAIILFNPDAKGLSNPSEVELLREKVYASLETYCKQKYPEQQGRFAKLLLRLPALRSIGLKCLEHLFFFKLIGDTPIDTFLMEMLEAPHQLA
modifications: ligand binding domain only
Consider B5, for which the non-steroid ligand sensitivity entry is reported as “improved non-steroid ligand sensitivity”.

B6: E472D: HsRXRβ ligand binding domain substitution mutant (protein, listed as Homo sapiens)
chain: MSWAARPPFLPQRHAAGQCGPVGVRKEMHCGVASRWRRRRPWLDPAAAAAAAVAGGEQQTPEPEPGEAGRDGMGDSGRDSRSPDSSSPNPLPQGVPPPSPPGPPLPPSTAPSLGGSGAPPPPPMPPPPLGSPFPVISSSMGSPGLPPPAPPGFSGPVSSPQINSTVSLPGGGSGPPEDVKPPVLGVRGLHCPPPPGGPGAGKRLCAICGDRSSGKHYGVYSCEGCKGFFKRTIRKDLTYSCRDNKDCTVDKRQRNRCQYCRYQKCLATGMKREAVQEERQRGKDKDGDGEGAGGAPEEMPVDRILEAELAVEQKSDQGVEGPGGTGGSGSSPNDPVTNICQAADKQLFTLVEWAKRIPHFSSLPLDDQVILLRAGWNELLIASFSHRSIDVRDGILLATGLHVHRNSAHSAGVGAIFDRVLTELVSKMRDMRMDKTELGCLRAIILFNPDAKGLSNPSEVEVLREKVYASLDTYCKQKYPEQQGRFAKLLLRLPALRSIGLKCLEHLFFFKLIGDTPIDTFLMEMLEAPHQLA
modifications: ligand binding domain only
With B6, the non-steroid ligand sensitivity result is “improved ligand sensitivity”.

B7: G500S: HsRXRβ ligand binding domain substitution mutant, glycine to serine at 500 (protein, listed as Homo sapiens)
chain: MSWAARPPFLPQRHAAGQCGPVGVRKEMHCGVASRWRRRRPWLDPAAAAAAAVAGGEQQTPEPEPGEAGRDGMGDSGRDSRSPDSSSPNPLPQGVPPPSPPGPPLPPSTAPSLGGSGAPPPPPMPPPPLGSPFPVISSSMGSPGLPPPAPPGFSGPVSSPQINSTVSLPGGGSGPPEDVKPPVLGVRGLHCPPPPGGPGAGKRLCAICGDRSSGKHYGVYSCEGCKGFFKRTIRKDLTYSCRDNKDCTVDKRQRNRCQYCRYQKCLATGMKREAVQEERQRGKDKDGDGEGAGGAPEEMPVDRILEAELAVEQKSDQGVEGPGGTGGSGSSPNDPVTNICQAADKQLFTLVEWAKRIPHFSSLPLDDQVILLRAGWNELLIASFSHRSIDVRDGILLATGLHVHRNSAHSAGVGAIFDRVLTELVSKMRDMRMDKTELGCLRAIILFNPDAKGLSNPSEVEVLREKVYASLETYCKQKYPEQQGRFAKLLLRLPALRSISLKCLEHLFFFKLIGDTPIDTFLMEMLEAPHQLA
modifications: ligand binding domain only
As for B7, the non-steroid ligand sensitivity entry is “improved ligand sensitivity”.

B8: G321L/P322R/G323V: HsRXRβ ligand binding domain triple substitution mutant (SEQ ID NO: 2) (protein, listed as Homo sapiens)
chain: MSWAARPPFLPQRHAAGQCGPVGVRKEMHCGVASRWRRRRPWLDPAAAAAAAVAGGEQQTPEPEPGEAGRDGMGDSGRDSRSPDSSSPNPLPQGVPPPSPPGPPLPPSTAPSLGGSGAPPPPPMPPPPLGSPFPVISSSMGSPGLPPPAPPGFSGPVSSPQINSTVSLPGGGSGPPEDVKPPVLGVRGLHCPPPPGGPGAGKRLCAICGDRSSGKHYGVYSCEGCKGFFKRTIRKDLTYSCRDNKDCTVDKRQRNRCQYCRYQKCLATGMKREAVQEERQRGKDKDGDGEGAGGAPEEMPVDRILEAELAVEQKSDQGVELRVGTGGSGSSPNDPVTNICQAADKQLFTLVEWAKRIPHFSSLPLDDQVILLRAGWNELLIASFSHRSIDVRDGILLATGLHVHRNSAHSAGVGAIFDRVLTELVSKMRDMRMDKTELGCLRAIILFNPDAKGLSNPSEVEVLREKVYASLETYCKQKYPEQQGRFAKLLLRLPALRSIGLKCLEHLFFFKLIGDTPIDTFLMEMLEAPHQLA
Turning to B8, the non-steroid ligand sensitivity result is “improved ligand sensitivity”.

B9: T473E: HsRXRβ ligand binding domain substitution mutant (protein, listed as Homo sapiens)
chain: MSWAARPPFLPQRHAAGQCGPVGVRKEMHCGVASRWRRRRPWLDPAAAAAAAVAGGEQQTPEPEPGEAGRDGMGDSGRDSRSPDSSSPNPLPQGVPPPSPPGPPLPPSTAPSLGGSGAPPPPPMPPPPLGSPFPVISSSMGSPGLPPPAPPGFSGPVSSPQINSTVSLPGGGSGPPEDVKPPVLGVRGLHCPPPPGGPGAGKRLCAICGDRSSGKHYGVYSCEGCKGFFKRTIRKDLTYSCRDNKDCTVDKRQRNRCQYCRYQKCLATGMKREAVQEERQRGKDKDGDGEGAGGAPEEMPVDRILEAELAVEQKSDQGVEGPGGTGGSGSSPNDPVTNICQAADKQLFTLVEWAKRIPHFSSLPLDDQVILLRAGWNELLIASFSHRSIDVRDGILLATGLHVHRNSAHSAGVGAIFDRVLTELVSKMRDMRMDKTELGCLRAIILFNPDAKGLSNPSEVEVLREKVYASLEEYCKQKYPEQQGRFAKLLLRLPALRSIGLKCLEHLFFFKLIGDTPIDTFLMEMLEAPHQLA
modifications: ligand binding domain only
For the molecule B9, the non-steroid ligand sensitivity result is listed as “improved non-steroid ligand sensitivity”.
